Residue numbers refer to the chain shown, from its start. Names may count otherwise.
B1: A2AR-G344ΔC (domain or fragment, human, UniProt P29274 1-344, looked up)
chain: MPIMGSSVYITVELAIAVLAILGNVLVCWAVWLNSNLQNVTNYFVVSLAAADIAVGVLAIPFAITISTGFCAACHGCLFIACFVLVLTQSSIFSLLAIAIDRYIAIRIPLRYNGLVTGTRAKGIIAICWVLSFAIGLTPMLGWNNCGQPKEGKNHSQGCGEGQVACLFEDVVPMNYMVYFNFFACVLVPLLLMLGVYLRIFLAARRQLKQMESQPLPGERARSTLQKEVHAAKSLAIIVGLFALCWLPLHIINCFTFFCPDCSHAPLWLMYLAIVLSHTNSVVNPFIYAYRIREFRQTFRKIIRSHVLRQQEPFKAAGTSARVLAAHGSDGEQVSLRLNGHPPG
notes: adenosine A2A receptor, human, C-terminus truncated at site G344
B2: A2AR-G349ΔC (domain or fragment, human, UniProt P29274 1-349, looked up)
chain: MPIMGSSVYITVELAIAVLAILGNVLVCWAVWLNSNLQNVTNYFVVSLAAADIAVGVLAIPFAITISTGFCAACHGCLFIACFVLVLTQSSIFSLLAIAIDRYIAIRIPLRYNGLVTGTRAKGIIAICWVLSFAIGLTPMLGWNNCGQPKEGKNHSQGCGEGQVACLFEDVVPMNYMVYFNFFACVLVPLLLMLGVYLRIFLAARRQLKQMESQPLPGERARSTLQKEVHAAKSLAIIVGLFALCWLPLHIINCFTFFCPDCSHAPLWLMYLAIVLSHTNSVVNPFIYAYRIREFRQTFRKIIRSHVLRQQEPFKAAGTSARVLAAHGSDGEQVSLRLNGHPPGVWANG
notes: adenosine A2A receptor, human, C-terminus truncated at site G349
B3: human adenosine A2A receptor, full-length wild type (receptor, UniProt P29274 1-412, looked up)
chain: MPIMGSSVYITVELAIAVLAILGNVLVCWAVWLNSNLQNVTNYFVVSLAAADIAVGVLAIPFAITISTGFCAACHGCLFIACFVLVLTQSSIFSLLAIAIDRYIAIRIPLRYNGLVTGTRAKGIIAICWVLSFAIGLTPMLGWNNCGQPKEGKNHSQGCGEGQVACLFEDVVPMNYMVYFNFFACVLVPLLLMLGVYLRIFLAARRQLKQMESQPLPGERARSTLQKEVHAAKSLAIIVGLFALCWLPLHIINCFTFFCPDCSHAPLWLMYLAIVLSHTNSVVNPFIYAYRIREFRQTFRKIIRSHVLRQQEPFKAAGTSARVLAAHGSDGEQVSLRLNGHPPGVWANGSAPHPERRPNGYALGLVSGGSAQESQGNTGLPDVELLSHELKGVCPEPPGLDDPLAQDGAGVS
notes: adenosine A2A receptor, human, full-length wild type; also called A2AR-WT; A2AR-FL-WT
B4: A2AR-C394X variant with valine at 394 (receptor, human, UniProt P29274 1-412, looked up)
chain: B3 chain with C394V
notes: also called A2AR-C394X (valine)
B5: A2AR-C394X variant with methionine at 394 (receptor, human, UniProt P29274 1-412, looked up)
chain: B3 chain with C394M
notes: also called A2AR-C394X (methionine)
B6: A2AR-C394X variant with alanine at 394 (receptor, human, UniProt P29274 1-412, looked up)
chain: B3 chain with C394A
notes: also called A2AR-C394X (alanine)
B7: A2AR-C394X variant with leucine at 394 (receptor, human, UniProt P29274 1-412, looked up)
chain: B3 chain with C394L
notes: also called A2AR-C394X (leucine)
B8: A2AR-FL-ERR:AAA (receptor, human, UniProt P29274 1-412, looked up)
chain: B3 chain with E355A, R356A, R357A
notes: adenosine A2A receptor, human, full length, residues 355ERR357 substituted by 355AAA357; also called A2AR-ERR:AAA variant of A2AR-FL-WT
B9: A2AR-C394S (receptor, human, UniProt P29274 1-412, looked up)
chain: B3 chain with C394S
notes: adenosine A2A receptor, human, with C394S; also called A2AR-C394X variant
B10: A2AR-P354ΔC (domain or fragment, human, UniProt P29274 1-354, looked up)
chain: MPIMGSSVYITVELAIAVLAILGNVLVCWAVWLNSNLQNVTNYFVVSLAAADIAVGVLAIPFAITISTGFCAACHGCLFIACFVLVLTQSSIFSLLAIAIDRYIAIRIPLRYNGLVTGTRAKGIIAICWVLSFAIGLTPMLGWNNCGQPKEGKNHSQGCGEGQVACLFEDVVPMNYMVYFNFFACVLVPLLLMLGVYLRIFLAARRQLKQMESQPLPGERARSTLQKEVHAAKSLAIIVGLFALCWLPLHIINCFTFFCPDCSHAPLWLMYLAIVLSHTNSVVNPFIYAYRIREFRQTFRKIIRSHVLRQQEPFKAAGTSARVLAAHGSDGEQVSLRLNGHPPGVWANGSAPHP
notes: adenosine A2A receptor, human, C-terminus truncated at site P354
B11: A2AR-N359ΔC with the ERR:AAA mutations (domain or fragment, human, UniProt P29274 1-359, looked up)
chain: MPIMGSSVYITVELAIAVLAILGNVLVCWAVWLNSNLQNVTNYFVVSLAAADIAVGVLAIPFAITISTGFCAACHGCLFIACFVLVLTQSSIFSLLAIAIDRYIAIRIPLRYNGLVTGTRAKGIIAICWVLSFAIGLTPMLGWNNCGQPKEGKNHSQGCGEGQVACLFEDVVPMNYMVYFNFFACVLVPLLLMLGVYLRIFLAARRQLKQMESQPLPGERARSTLQKEVHAAKSLAIIVGLFALCWLPLHIINCFTFFCPDCSHAPLWLMYLAIVLSHTNSVVNPFIYAYRIREFRQTFRKIIRSHVLRQQEPFKAAGTSARVLAAHGSDGEQVSLRLNGHPPGVWANGSAPHPAAAPN
notes: adenosine A2A receptor, human, C-terminus truncated at site N359, residues 355ERR357 substituted by 355AAA357; also called A2AR-ERR:AAA variant of A2AR-N359ΔC; N359ΔC ERR:AAA
B12: A2AR-P395ΔC (domain or fragment, human, UniProt P29274 1-395, looked up)
chain: MPIMGSSVYITVELAIAVLAILGNVLVCWAVWLNSNLQNVTNYFVVSLAAADIAVGVLAIPFAITISTGFCAACHGCLFIACFVLVLTQSSIFSLLAIAIDRYIAIRIPLRYNGLVTGTRAKGIIAICWVLSFAIGLTPMLGWNNCGQPKEGKNHSQGCGEGQVACLFEDVVPMNYMVYFNFFACVLVPLLLMLGVYLRIFLAARRQLKQMESQPLPGERARSTLQKEVHAAKSLAIIVGLFALCWLPLHIINCFTFFCPDCSHAPLWLMYLAIVLSHTNSVVNPFIYAYRIREFRQTFRKIIRSHVLRQQEPFKAAGTSARVLAAHGSDGEQVSLRLNGHPPGVWANGSAPHPERRPNGYALGLVSGGSAQESQGNTGLPDVELLSHELKGVCP
notes: adenosine A2A receptor, human, C-terminus truncated at site P395
B13: A2AR-N359ΔC (protein)
chain: B11 chain with A355E, A356R, A357R
B14: A2AR-Q372ΔC (domain or fragment, human, UniProt P29274 1-372, looked up)
chain: MPIMGSSVYITVELAIAVLAILGNVLVCWAVWLNSNLQNVTNYFVVSLAAADIAVGVLAIPFAITISTGFCAACHGCLFIACFVLVLTQSSIFSLLAIAIDRYIAIRIPLRYNGLVTGTRAKGIIAICWVLSFAIGLTPMLGWNNCGQPKEGKNHSQGCGEGQVACLFEDVVPMNYMVYFNFFACVLVPLLLMLGVYLRIFLAARRQLKQMESQPLPGERARSTLQKEVHAAKSLAIIVGLFALCWLPLHIINCFTFFCPDCSHAPLWLMYLAIVLSHTNSVVNPFIYAYRIREFRQTFRKIIRSHVLRQQEPFKAAGTSARVLAAHGSDGEQVSLRLNGHPPGVWANGSAPHPERRPNGYALGLVSGGSAQ
notes: adenosine A2A receptor, human, C-terminus truncated at site Q372 (lacks residue C394)

Molecular target: the molecule itself
Test: SEC; Superdex 200 10/300 GL; ligand-active receptor in running buffer 150 mM NaCl, 50 mM sodium phosphate, 10% glycerol, 0.1% DDM, 0.1% CHAPS, 0.02% CHS, pH 8.0; 4°C; HMW oligomer and dimer peak areas (Gaussian fit) relative to the monomer peak

Protein	binding result	total oligomer level (relative to monomer) [arbitrary units]	dimer level (relative to monomer) [arbitrary units]
B1	binds		
B2	binds		
B3		1.37	
B4	binds		
B5	binds		
B6	binds		
B7	binds		
B8		0.94	0.29
B9	binds		
B10		0.62	0.19
B11		0.85	0.48
B12	binds		

Molecular target: P29274
Test: as above

Protein	HMW oligomer + dimer level (relative to monomer)	HMW oligomer level (relative to monomer)
B3	WT: 1.34	ctrl: 0.88
B8		ERR:AAA: 0.66
B13		ctrl: 0.68
B11		ERR:AAA: 0.38

Molecular target: the molecule itself
Test: SEC; consecutive rounds of SEC: a first round separates monomer from dimer/oligomer, a second round is run on the SEC-separated populations; total oligomer level relative to the monomer

Protein	total oligomer level (relative to monomer), SEC-separated monomer after redistribution [arbitrary units]	total oligomer level (relative to monomer), initial sample [arbitrary units]
B14	1.4	1.49
B3	1.6	2.87

Molecular target: the molecule itself
Test: SDS-PAGE and western blot densitometry of SEC-separated dimer; SEC-separated dimers incubated without or with 5 mM TCEP, then SDS-PAGE and western blot; dimer band area relative to monomer band area

Protein	dimer level (relative to monomer) with 5 mM TCEP [arbitrary units]	dimer level (relative to monomer) without TCEP [arbitrary units]
B14	0.22	0.68
B3	0.51	1.14

Reference: publication PMC8328514, “Homo-oligomerization of the human adenosine A2A receptor is driven by the intrinsically disordered C-terminus” (eLife, 2021)
